Here are results for one molecule from US6544767B1, “Cathespin O2 protease” (Axys Pharmaceuticals, Inc., priority 1994, dated 2003).

For this assay, the target named is T1, recombinant human cathepsin O2 (Homo sapiens, UniProt P43235).
T1 construct: the mature protein spans from position 115 to 329 (215 amino acids); made in house; host or cells: Sf9 insect cells (baculovirus, pVL1392)
T1 sequence (P43235 115-329): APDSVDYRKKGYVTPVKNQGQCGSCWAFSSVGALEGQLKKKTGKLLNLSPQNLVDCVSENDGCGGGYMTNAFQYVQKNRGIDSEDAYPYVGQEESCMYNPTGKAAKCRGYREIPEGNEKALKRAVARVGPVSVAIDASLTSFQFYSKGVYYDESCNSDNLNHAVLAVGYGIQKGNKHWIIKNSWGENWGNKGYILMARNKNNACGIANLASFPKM
As to the kind of experiment: Inhibitor profile, fluorimetric enzyme assay with Z-FR-MCA. The class given is biochemical. On the procedure: Human cathepsin O2 was assayed with a fluorogenic substrate Z-FR-MCA (MCA, methyl coumarylamide) in 100 mM sodium acetate buffer, containing 2.5 mM dithioerythreitol and 2.5 mM EDTA. Initial rates of hydrolysis of the MCA-substrate are monitored in 1-cm cuvettes at 25° C. at an excitation wavelength at 380 nm and an emission wavelength at 450 nm. The concentration of Z-FR-MCA is 5 μM under standard conditions.
The inhibition of cathepsin O2 was assayed at a constant substrate (5 μM Z-FR-MCA) and enzyme concentration (1 nM) in the presence of different inhibitor concentrations in the substrate assay buffer. Cathepsin O2 was preincubated with the inhibitors for 10 min and the reaction was started with substrate. The residual activity was monitored and percent inhibition was calculated from the uninhibited rate.
The efficacy of protease class specific inhibitors to inhibit cathepsin O2 was determined by adding the inhibitor to the purified enzyme in a fluorimetric enzyme assay (described above).

B1: chicken cystatin: cysteine protease inhibitor (protein)
chain: SEDRSRLLGAPVPVDENDEGLQRALQFAMAEYNRASNDKYSSRVVRVISAKRQLVSGIKYILQVEIGRTTCPKSSGDLQSCEFHDEPEMAKYTTCTFVVYSIPWLNQIKLLESKCQ
As usually defined, the % inhibition is the change of the read-out against control, counted positive when it falls. Regarding B1, under “[inhibitor] 0.1 μM”, the “% inhibition” value came to 100%. Further, the “inhibition of enzyme activity” value (concentrations above 0.1 μM) is reported as “completely inhibit”.
